Molecular target: recombinant Ku70 (human) (UniProt P12956)
Experiment: not stated; complex of recombinant Ku70 and IN; method of the Kd not told

UniProt P12956, sequence (P12956 whole entry): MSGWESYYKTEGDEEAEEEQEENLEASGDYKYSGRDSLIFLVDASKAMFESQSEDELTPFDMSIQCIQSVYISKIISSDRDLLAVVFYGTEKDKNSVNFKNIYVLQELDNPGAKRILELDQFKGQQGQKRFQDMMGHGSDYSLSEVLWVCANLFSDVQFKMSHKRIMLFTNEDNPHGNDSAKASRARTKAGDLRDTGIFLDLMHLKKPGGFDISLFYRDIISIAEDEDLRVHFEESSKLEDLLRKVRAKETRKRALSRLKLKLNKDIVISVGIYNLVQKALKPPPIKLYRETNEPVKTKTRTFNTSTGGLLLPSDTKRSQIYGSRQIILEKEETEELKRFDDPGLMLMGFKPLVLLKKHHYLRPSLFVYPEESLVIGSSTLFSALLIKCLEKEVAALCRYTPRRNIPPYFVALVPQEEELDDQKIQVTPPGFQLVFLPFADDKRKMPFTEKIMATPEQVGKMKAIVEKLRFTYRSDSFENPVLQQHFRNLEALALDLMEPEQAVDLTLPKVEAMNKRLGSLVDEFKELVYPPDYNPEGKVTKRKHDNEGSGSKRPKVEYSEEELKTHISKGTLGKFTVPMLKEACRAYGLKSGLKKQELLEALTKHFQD

Substance: recombinant His6-IN, wild type (HIV-1 integrase, abstract P13) (enzyme)
- Kd: 70 nM
